Measurements as given in publication PMC9800568, “The permanently chaperone-active small heat shock protein Hsp17 from Caenorhabditis elegans exhibits topological separation of its N-terminal regions” (The Journal of Biological Chemistry, 2022).

B1: Hsp17ΔNTR (Hsp17 variant lacking the N-terminal region) (domain or fragment, C. elegans)
chain: MGDAIDVVNNDQEYNVSVDVSQFEPEELKVNIVDNQLIIEGKHNEKTDKYGQVERHFVRKYNLPTGVRPEQIKSELSNNGVLTVKYEKNQEQQPKSIPITIVPKRN
notes: Hsp17, C. elegans, from aa position 45 to the C-terminus (ACD and CTR); The full-length protein is modelled to residue 148; also called NTR-truncated variant; truncation variant; source: E. coli BL21 (DE3), tag-free, purified (Sepharose Q FF, Superdex 75 pg)

Legend:
[1] = target: Hsp17 (small heat shock protein Hsp17 from Caenorhabditis elegans) (C. elegans) (UniProt Q20660); experiment: cryo-EM structure; 2.5 mg/ml Hsp17, Titan Krios 300 kV, tetrahedral symmetry, pseudo-atomic model fitted
[2] = target: Hsp17 (small heat shock protein Hsp17 from Caenorhabditis elegans) (C. elegans) (UniProt Q20660); experiment: SEC; SEC-HPLC, Superdex 200 Increase 10/300 GL, PBS, 0.5 ml/min, room temperature, 50 μl of 50 μM protein
[3] = target: the molecule itself; experiment: as above

Molecule | stoichiometry N [1] | stoichiometry N [2] | stoichiometry N [3]
Hsp17 (small heat shock protein Hsp17 from Caenorhabditis elegans) (from UniProt Q20660 1-149) (natural protein) | 24 | 24 | –
B1 | – | – | 3.5 monomers
